From the supplement of paper PMC10567573

B1: PBXIP1 (parent)
chain: LPVETLGPASRMDPESERALQAPH
B2: CDC14A (parent)
chain: GPHPKSKIENGYPLHAPEAYFPYF

Variants of: B1
Experiment: protein stability index of a GFP-peptide fusion (GPS, HEK-293T) (PSI 1-6); higher = more stable
Settings: c terminus: a fixed tail appended
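Also: lentivirally expressed fusions sorted by FACS into six bins by GFP to DsRed ratio, PSI derived from sequencing read proportions per bin multiplied by bin number.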

Protein stability index, by site and new letter:
L6: T 5.37; F 4.81; W 4.72; R 5.28; N 5.42; Y 5.53; V 4.45; D 5.48; C 4.55; G 4.71; E 5.21; I 3.73; A 5.19; K 5.03; P 5.41; S 5.44; M 5.3; H 5.09; Q 5.78
R11: K 4; E 4.48; M 3.96; F 3.6; P 3.98; C 4.63; I 2.99; G 3.95; Y 3.67; L 3.66; H 3.71; A 4.18; W 3.7; Q 4.09; V 4.66; N 4.4; S 4.01; T 4.2
G7: M 4.03; C 5; F 4.62; K 5.55; D 5.29; Y 4.63; E 5.51; L 5.23; P 4.61; R 5.12; N 5.24; W 4.63; V 4.95; H 4.54; Q 4.99; I 4.76; T 5.37; S 5.42; A 5.51
S16: V 4.31; T 4.35; C 4.49; A 4.16; Q 4.53; K 4.34; M 4.09; Y 4.05; L 2.83; E 4.48; H 4.25; P 3.95; D 4.54; G 4.56; W 4.12; R 3.56; I 3.77; N 4.54; F 3.85
S10: W 4.4; N 5.01; R 4.99; F 3.75; E 5.28; H 4.2; L 3.53; A 5.14; Y 3.85; V 4.44; M 4.3; I 3.95; G 4.47; C 4.24; D 4.92; K 5.32; T 4.78; Q 4.88
M12: K 5.34; G 4.4; V 4.34; W 4.17; E 4.46; S 4.11; P 4.35; Y 4.09; Q 4.89; H 4.11; A 4.31; T 4.45; N 4.41; D 4.95; I 4.5; C 4.32; F 4.15; L 4.04; R 4.33
T5: L 3.9; R 4.14; P 4.95; E 5.77; K 4.38; C 4.89; S 4.68; M 4.41; N 5.12; V 4.6; D 5.49; G 5.33; Q 5.52; Y 4.93; A 5.26; F 4.89; I 4.52; H 4.72; W 4.65
E4: Y 4.22; H 4.79; L 3.49; K 4.99; Q 4.46; T 5.18; C 4.99; V 4.62; N 4.53; F 3.94; A 5.07; I 4.98; P 5.25; M 4.74; S 4.94; R 5.09; W 3.71; D 5.71; G 5.03
P14: E 4.61; Y 3.72; R 4.19; W 3.81; H 3.61; L 3.91; A 4.62; K 4.43; M 4.04; I 4.22; G 3.56; N 4; V 4.42; F 4.32; T 4.37; C 4.13; S 4.09; D 4.44; Q 4.75
P8: T 5.31; N 5.28; G 5.57; V 4.83; C 5.37; M 4.16; A 5.03; L 4.99; K 4.39; Q 5.1; W 4.01; F 4.19; Y 4.67; S 4.64; R 4.73; H 4.51; I 4.89; E 5.52; D 5.46
A9: R 4.81; G 4.33; C 3.68; T 4.51; H 4.91; F 3.83; P 4.92; W 4.42; Y 4.26; Q 4.59; V 2.51; E 4.56; K 4.77; M 4.12; L 3.18; N 4.63; I 4.04; D 4.54
E15: G 3.99; T 4.02; H 4.13; F 3.81; Y 3.95; W 3.1; P 3.92; K 4.04; A 4.35; S 3.81; R 4.19; N 4.47; V 4.28; I 3.27; D 5.08; Q 4.26; C 3.82; L 4.03; M 3.48
P2: S 4.4; V 3.33; L 3.37; W 1.53; C 4.42; D 5; T 4.36; F 3.42; R 4.05; N 4.6; A 4.24; I 3.21; K 3.95; Y 3.13; Q 4.47; E 3.99; H 4.71; G 4.98; M 3.04
L1: D 5.07; F 4.61; T 4.64; R 4.72; H 4.89; S 5.25; M 4.43; Q 5.33; I 4.42; N 5.38; A 5.48; E 4.68; K 5.15; P 5.09; G 5.38; C 3.66; W 5.13; Y 5.17; V 4.65
V3: I 4.92; C 4.61; W 4.55; E 5.36; S 4.83; K 5.38; Y 5.04; N 5.42; D 5.5; F 4.88; R 4.27; M 4.74; L 4.63; T 5.56; H 5.34; A 4.73; P 5.25; Q 5.07; G 4.78
E17: H 3.92; F 3.61; A 3.65; D 3.97; C 3.76; I 3.1; G 4.13
D13: C 3.64; Y 3.73; S 3.88; V 4.38; M 4.11; P 4.13; R 2.62; Q 3.7; N 4.66; I 4.61; H 3.83; A 4.61; K 3.98; T 4.28; F 4.48; E 4.66; W 3.71; G 4.41; L 3.75

Variants of: B2
Experiment: as above
Settings: c terminus: a fixed tail appended

Protein stability index of substitutions, site by site:
Y23: S 3.11; N 3.28; R 2.97; W 1.91; Q 3.24; T 3; V 2.07
F24: A 3.43; L 2.51; M 2.23; S 2.38; K 3.4; H 3.12; P 3.08; V 2.75; D 3.37; T 3.41; Q 2.6; N 2.62; E 3.61; R 2.44; I 2.92; G 3.09; C 2.66; W 1.89; Y 2.6
